# Source: patent publication US20190100518A1 (priority 2016, published 2019)
# Tests used:
# [1] = biological target: T1, lysozyme (Gallus gallus, UniProt P00698); assay: circular dichroism (CD) spectrum, higher-order structure of lysozyme; assay type: physicochemical; details: 25° C.
# T1 construct: purchased Sigma-Aldrich L-4919
# Experimental: A keto-ABNO-lysozyme conjugate prepared by the same method as in Example 6 was dissolved in water, and the concentration was adjusted to 20 μM to provide an aqueous solution for a test group. On the other hand, lysozyme alone was dissolved in water, and the concentration was adjusted to 20 μM to provide an aqueous solution for a control group.
# Using a circular dichroism (CD) dispersion meter Model 202SF (manufactured by AVIV Biomedical, Inc.), the CD spectrum of the aqueous solution in each of the test group and the control group was measured under the following conditions to perform analysis of the higher-order structure of the lysozyme in each aqueous solution.
# On the other hand, control group A was prepared in the same manner as in the method described in Example 6 except that the same amount of water was added instead of the aqueous NaNO2 solution. As control group B, lysozyme alone (20 μM) was used. As control group C, a phenylmaleimide-lysozyme conjugate prepared by the method described in Example 15 was used.
# Using a circular dichroism (CD) dispersion meter Model 202SF (manufactured by AVIV Biomedical, Inc.), the CD spectrum was measured for each of the test group and the control groups under the following conditions.
# [2] = assay type: physicochemical
# [3] = Example 16: 200 to 250 nm, compared with control groups A and B, FIG. 7
# T1 sequence (P00698 19-147): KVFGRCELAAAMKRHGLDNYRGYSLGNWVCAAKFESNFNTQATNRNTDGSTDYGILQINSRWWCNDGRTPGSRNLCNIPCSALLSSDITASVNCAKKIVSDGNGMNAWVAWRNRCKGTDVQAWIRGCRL
Molecule,"higher-order structure of lysozyme (waveform of the CD spectrum) [1, 3]","higher-order structure of lysozyme (waveform of the CD spectrum) ([1]; Example 14: 20 μM in water, 200 to 250 nm, compared with lysozyme alone, FIG. 5)",solubility in water [2]
"phenylmaleimide-lysozyme conjugate: lysozyme bound to phenylmaleimide through a cysteine residue, cysteine modification method comparison [reference compound]",has changed,,
"keto-ABNO-lysozyme conjugate: lysozyme bound to keto-ABNO at a tryptophan residue, prepared in water with NaNO2 and AcOH",maintained,not influenced,
"[O]N1C2CCCC1CC(=O)C2 [keto-ABNO, keto-azabicyclo[3.3.1]nonane N-oxyl]",,,dissolve in water
